Experimental data reported in paper PMC4817942.

Assays:
FcγRI (CD64) = FcγRI (CD64) (UniProt P12314); test: SPR; Biacore analysis; who was immobilised, buffer and temperature not given for this experiment
FcγRIIA (CD32A) = FcγRIIA (CD32A) (UniProt P12318); test: as above
FcγRIIB (CD32B) = FcγRIIB (CD32B) (UniProt P31994); test: as above
FcγRIII (CD16A) = FcγRIII (CD16A) (UniProt P08637); test: as above
[1] = target: neonatal Fc receptor (FcRn) (UniProt P55899); test: SPR; Biacore analysis; FcRn data collected at pH6; who was immobilised not told
Chain of neonatal Fc receptor (FcRn) (P55899 whole entry, looked up, tested part not stated): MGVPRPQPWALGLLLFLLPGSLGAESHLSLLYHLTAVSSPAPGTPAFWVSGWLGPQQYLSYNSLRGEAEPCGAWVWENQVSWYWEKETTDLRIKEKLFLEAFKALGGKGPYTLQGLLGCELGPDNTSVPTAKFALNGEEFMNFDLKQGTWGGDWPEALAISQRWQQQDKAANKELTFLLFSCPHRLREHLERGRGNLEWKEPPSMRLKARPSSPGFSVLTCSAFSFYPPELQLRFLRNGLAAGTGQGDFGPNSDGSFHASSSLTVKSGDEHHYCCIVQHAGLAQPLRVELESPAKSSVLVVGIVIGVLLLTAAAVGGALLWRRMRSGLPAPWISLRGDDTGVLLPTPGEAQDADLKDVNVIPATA

[2] = target: HER2 on the cell surface (human (endogenous in SK-BR-3, HCC1954 and BT474)) (UniProt P04626)
[3] = target: HER2 on the cell surface (human (endogenous in SK-BR-3, HCC1954 and BT474)) (UniProt P04626); test: flow cytometry on cells; cells with 0.1-2,000 nmol/l Fcab for 1 hour at 4 °C in DPBS with 2% FBS; detected by anti-human IgG-phycoerythrin
[4] = target: human HER2 ECD-Fc recombinant (human) (UniProt P04626); test: SPR; BIAcore 3000; human HER2 ECD-Fc amine-coupled on a CM5 chip to 200 RU; analyte FS102 (50 µg/ml) at 20 µl/minute; HBS-P buffer; apparent KD

Chain of FcγRIIA (CD32A) (P12318 34-317): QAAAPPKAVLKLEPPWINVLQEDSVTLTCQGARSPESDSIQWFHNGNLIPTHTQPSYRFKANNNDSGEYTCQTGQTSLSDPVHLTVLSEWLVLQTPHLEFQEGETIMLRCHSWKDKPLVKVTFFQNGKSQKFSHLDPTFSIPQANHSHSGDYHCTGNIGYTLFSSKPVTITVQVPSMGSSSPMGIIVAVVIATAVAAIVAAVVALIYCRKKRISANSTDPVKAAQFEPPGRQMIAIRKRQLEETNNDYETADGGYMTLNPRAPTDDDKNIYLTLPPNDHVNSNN
Chain of FcγRIIB (CD32B) (P31994 43-310): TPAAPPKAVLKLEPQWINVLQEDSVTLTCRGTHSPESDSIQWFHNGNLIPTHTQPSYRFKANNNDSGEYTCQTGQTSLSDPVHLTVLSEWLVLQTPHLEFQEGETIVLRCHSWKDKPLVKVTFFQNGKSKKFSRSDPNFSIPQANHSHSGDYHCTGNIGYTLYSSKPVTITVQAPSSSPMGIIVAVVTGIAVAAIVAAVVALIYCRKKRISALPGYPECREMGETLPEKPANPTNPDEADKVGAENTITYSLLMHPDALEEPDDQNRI
Chain of FcγRI (CD64) (P12314 16-374): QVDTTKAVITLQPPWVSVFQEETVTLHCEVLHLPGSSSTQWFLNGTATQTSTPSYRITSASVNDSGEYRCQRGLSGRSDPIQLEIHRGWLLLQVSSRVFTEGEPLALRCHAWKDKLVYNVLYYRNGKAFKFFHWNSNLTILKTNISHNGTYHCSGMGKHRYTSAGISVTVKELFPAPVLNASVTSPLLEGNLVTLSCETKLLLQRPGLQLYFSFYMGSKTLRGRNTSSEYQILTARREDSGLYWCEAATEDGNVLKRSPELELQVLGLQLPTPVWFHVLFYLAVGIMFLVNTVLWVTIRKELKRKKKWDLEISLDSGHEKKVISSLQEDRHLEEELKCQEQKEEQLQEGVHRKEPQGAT
Chain of FcγRIII (CD16A) (P08637 17-254): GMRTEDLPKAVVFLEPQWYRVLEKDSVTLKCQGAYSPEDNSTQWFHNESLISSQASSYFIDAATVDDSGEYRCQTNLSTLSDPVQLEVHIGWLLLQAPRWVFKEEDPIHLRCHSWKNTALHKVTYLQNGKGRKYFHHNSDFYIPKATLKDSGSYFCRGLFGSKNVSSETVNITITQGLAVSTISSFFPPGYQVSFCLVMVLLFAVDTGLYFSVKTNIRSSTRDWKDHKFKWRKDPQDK

| Substance | Kd (FcγRI (CD64)) [nM] | Kd (FcγRIIA (CD32A)) [nM] | Kd (FcγRIIB (CD32B)) [nM] | Kd (FcγRIII (CD16A)) [nM] | Kd [1] [nM] | reduction of HCC1954 cell number after 5 days of incubation (proliferation assay) [2] [%] | reduction of SK-BR-3 cell number after 5 days of incubation (proliferation assay) [2] [%] | EC50 [3] [nM] | Kd [4] [nM] |
| --- | --- | --- | --- | --- | --- | --- | --- | --- | --- |
| WT Fcab (unmodified constant region of human IgG1) (domain or fragment) | 27 | 1000 | 6200 | 500 |  |  |  |  |  |
| IgG1 (antibody) | 15 | 250 | 5000 | 660 | 20 to 60 |  |  |  |  |
| FS102 (designed binder) | 19 | 472 | 6400 | 560 | 45 | 47 | 39 | 3.3 | 0.8 |
| Trastuzumab (antibody) | 40 |  |  |  |  |  |  |  |  |
